# T1: purine nucleoside phosphorylase (PNP) (Bos taurus, UniProt P55859)
# T1 construct: Spleen; from tissue; host or cells: spleen
# T1 sequence (P55859 1-289): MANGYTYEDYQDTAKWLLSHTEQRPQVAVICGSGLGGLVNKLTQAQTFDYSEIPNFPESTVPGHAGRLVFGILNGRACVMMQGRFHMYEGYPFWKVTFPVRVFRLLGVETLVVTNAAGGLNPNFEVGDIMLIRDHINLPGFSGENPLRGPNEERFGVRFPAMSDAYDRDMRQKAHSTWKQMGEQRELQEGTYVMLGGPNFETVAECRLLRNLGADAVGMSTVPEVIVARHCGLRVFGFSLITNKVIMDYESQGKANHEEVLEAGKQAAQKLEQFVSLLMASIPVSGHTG
# T2: purine nucleoside phosphorylase (PNP) (Homo sapiens, UniProt P00491)
# T2 construct: Erythrocytes; from tissue; host or cells: erythrocytes
# T2 sequence (P00491 1-289): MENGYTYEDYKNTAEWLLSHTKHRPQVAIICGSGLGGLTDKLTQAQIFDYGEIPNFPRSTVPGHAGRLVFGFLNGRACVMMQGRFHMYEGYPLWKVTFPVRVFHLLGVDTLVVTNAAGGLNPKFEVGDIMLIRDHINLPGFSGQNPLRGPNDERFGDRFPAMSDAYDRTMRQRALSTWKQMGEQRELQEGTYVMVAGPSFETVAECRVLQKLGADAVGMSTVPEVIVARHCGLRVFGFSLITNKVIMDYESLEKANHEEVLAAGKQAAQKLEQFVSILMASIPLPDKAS
# Columns and labels:
# [1] = target: T1, purine nucleoside phosphorylase (PNP); assay: PNP inhibition, coupled xanthine oxidase method of Kalckar, bovine spleen PNP; format: biochemical
# [2] = target: T2, purine nucleoside phosphorylase (PNP); assay: PNP inhibition, coupled xanthine oxidase method of Kalckar, human erythrocyte PNP; format: biochemical; settings: 1 mM inorganic phosphate, 0.1M HEPES pH 7.4, inosine 0.05-0.15 mM as substrate; read-out: Ki (apparent dissociation constant), Human Erythrocytes PNP
# [3] = substrate: OC[C@H]1O[C@@H](n2cnc3c(O)ncnc32)[C@H](O)[C@@H]1O; assay: PNP inhibition, coupled xanthine oxidase method of Kalckar, E. coli PNP; format: biochemical; settings: other: substrate KM for comparison with Ki; pH 7.4
# purified protein = substrate: OC[C@H]1O[C@@H](n2cnc3c(O)ncnc32)[C@H](O)[C@@H]1O; assay: purified protein; settings: other: substrate KM for comparison with Ki; pH 7.4
# [4] = substrate: OC[C@H]1O[C@@H](n2cnc3c(O)ncnc32)[C@H](O)[C@@H]1O; assay: PNP inhibition, coupled xanthine oxidase method of Kalckar, human erythrocyte PNP; format: biochemical; settings: other: substrate KM for comparison with Ki; pH 7.4
# [5] = substrate: OC[C@H]1O[C@@H](n2cnc3c(O)ncnc32)[C@H](O)[C@@H]1O; assay: PNP inhibition, coupled xanthine oxidase method of Kalckar, bovine spleen PNP; format: biochemical; settings: other: substrate KM for comparison with Ki; pH 7.4
molecule,measurement,setting,value
"Nc1nc2c(ncn2Cc2ccccc2OCP(=O)(O)O)c(=O)[nH]1 [[2-[(2-amino-1,6,dihydro-6-oxo-9H-purin-9yl)methyl]phenoxy]methylphosphonic acid]",Ki,[1],7.5 nM
"Nc1nc2c(ncn2Cc2ccccc2C(F)C(F)(F)P(=O)(O)O)c(=O)[nH]1 (stereo not shown) [[2-[2-[(2-amino-1,6-dihydro-6-oxo-9H-purin-9-yl)methyl]phenyl]-1,1,2-trifluoroethyl]phosphonic acid]",Ki,[2],1.3 nM
Nc1nc2c(ncn2Cc2ccccc2OCCC(F)(F)P(=O)(O)O)c(=O)[nH]1,Ki,[1],250 nM
purine nucleoside phosphorylase (PNP) (Escherichia coli K-12) (protein) ATPHINAEMGDFADVVLMPGDPLRAKYIAETFLEDAREVNNVRGMLGFTGTYKGRKISVMGHGMGIPSCSIYTKELITDFGVKKIIRVGSCGAVLPHVKLRDVVIGMGACTDSKVNRIRFKDHDFAAIADFDMVRNAVDAAKALGIDARVGNLFSADLFYSPDGEMFDVMEKYGILGVEMEAAGIYGVAAEFGAKALTICTVSDHIRTHEQTTAAERQTTFNDMIKIALESVLLGDKE,Km,[3],80 µM
purine nucleoside phosphorylase (PNP) (Rattus norvegicus) (protein) MENEFTYEDYQRTAEWLRSHTKHRPQVAVICGSGLGGLTAKLTQPQAFDYNEIPNFPQSTVQGHAGRLVFGFLNGRSCVMMQGRFHMYEGYSLSKVTFPVRVFHLLGVDTLVVTNAAGGLNPKFEVGDIMLIRDHINLPGFCGQNPLRGPNDERFGVRFPAMSDAYDRDMRQKAFNAWKQMGEQRELQEGTYIMSAGPTFETVAESCLLRMLGADAVGMSTVPEVIVARHCGLRVFGFSLITNKVVMDYNNLEKASHQEVLEAGKAAAQKLEQFVSILMESIPPRERAN,Km,purified protein,150 µM
"purine nucleoside phosphorylase (PNP) (Homo sapiens) (protein, Erythrocytes; from tissue; host or cells: erythrocytes) MENGYTYEDYKNTAEWLLSHTKHRPQVAIICGSGLGGLTDKLTQAQIFDYGEIPNFPRSTVPGHAGRLVFGFLNGRACVMMQGRFHMYEGYPLWKVTFPVRVFHLLGVDTLVVTNAAGGLNPKFEVGDIMLIRDHINLPGFSGQNPLRGPNDERFGDRFPAMSDAYDRTMRQRALSTWKQMGEQRELQEGTYVMVAGPSFETVAECRVLQKLGADAVGMSTVPEVIVARHCGLRVFGFSLITNKVIMDYESLEKANHEEVLAAGKQAAQKLEQFVSILMASIPLPDKAS",Km,[4],150 µM
"purine nucleoside phosphorylase (PNP) (Bos taurus) (protein, Spleen; from tissue; host or cells: spleen) MANGYTYEDYQDTAKWLLSHTEQRPQVAVICGSGLGGLVNKLTQAQTFDYSEIPNFPESTVPGHAGRLVFGILNGRACVMMQGRFHMYEGYPFWKVTFPVRVFRLLGVETLVVTNAAGGLNPNFEVGDIMLIRDHINLPGFSGENPLRGPNEERFGVRFPAMSDAYDRDMRQKAHSTWKQMGEQRELQEGTYVMLGGPNFETVAECRLLRNLGADAVGMSTVPEVIVARHCGLRVFGFSLITNKVIMDYESQGKANHEEVLEAGKQAAQKLEQFVSLLMASIPVSGHTG",Km,[5],30 µM

# Source: patent publication US5494912A, “9-purinyl phosphonic acid derivitives for treating gout” (Merrell Pharmaceuticals Inc., priority 1995, dated 1996)
